Here are results for ten molecules from patent US9655377, “Methods of controlling fructan synthesis in plants” (COMMONWEALTH SCIENTIFIC AND INDUSTRIAL RESEARCH ORGANISATION).

For data set [1], the target named is T1, TaMYB13-1 (correctly spliced form) (Triticum aestivum).
T1 chain: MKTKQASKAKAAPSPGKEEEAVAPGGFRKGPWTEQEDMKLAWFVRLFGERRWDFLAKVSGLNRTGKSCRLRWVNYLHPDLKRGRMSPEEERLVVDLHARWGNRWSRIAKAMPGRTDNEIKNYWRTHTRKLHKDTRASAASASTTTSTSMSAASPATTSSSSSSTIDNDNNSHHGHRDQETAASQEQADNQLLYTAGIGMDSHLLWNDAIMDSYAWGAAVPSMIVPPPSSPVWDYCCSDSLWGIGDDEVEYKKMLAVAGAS
Briefly: CELD reporter plate assay, 25 mM HEPES pH 7.0, 50 mM KCl; self-competition at 2.5x reduced binding about 60%. The settings on record: tags: C-terminal 6xHis-tagged CELD cellulase reporter fusion; label: biotin. The protocol:
(§1) The DNA-binding activity of TaMYB13-CELD was measured as described previously (Xue, 2002a) using streptavidin-coated 96-well plate and binding/washing buffer (25 mM HEPES/KOH, pH 7.0, 50 mM KCl, 0.2 mM EDTA and 0.5 mM DTT) containing 0.15 µg µl^-1 shared herring sperm DNA, 0.3 mg ml^-1 bovine, serum albumin, 10% glycerol and 0.025% Nonidet P-40. 40,000 fluorescent units h^-1 of the CELD activity of TaMYB13-CELD protein and 2 pmol of biotinylated probes were used per assay. […]
(§2) Binding site competition assays were as described by Xue (2002). […] Relative TaMYB13 binding activity was expressed as fluorescence units (FU) of methylumbelliferyl group generated from MUC hydrolysis by TaMYB13-CELD that bound to an immobilised biotin-labelled probe after 3-h incubation of cellulase assay.
(§3) To further analyse the relative binding affinity of the previously reported plant R2R3 MYB protein sites in relation to the preferred TaMYB13-binding site, a binding site competition analysis was performed. Relative TaMYB13 binding activity to three biotin-labelled probes (SynO2m14, MYB.Ph3-II and MRE2) was assessed in combination with or without one of the four unlabelled competitors in a 2.5-fold amount: SynO2m14, MYB.Ph3-II, MRE2 and AC-I. The addition of a 2.5-fold amount of unlabelled SynO2m14 to biotin-labelled SynO2m14 reduced the TaMYB13 binding activity by about 60%. […]

For data set [2], the target named is T1, TaMYB13-1 (correctly spliced form). Put plainly: no or negligible activity; did not compete with SynO2m14. The conditions noted are these: tags: C-terminal 6xHis-tagged CELD cellulase reporter fusion; label: biotin. The procedure: as §1, §2, §3
Data set [3] has the same target. Briefly: higher affinity than S3; assayed oligonucleotide may be longer. The conditions noted are these: tags: C-terminal 6xHis-tagged CELD cellulase reporter fusion. The protocol:
(§4) The DNA-binding activity of TaMYB13-CELD was measured as described previously (Xue, 2002a) using streptavidin-coated 96-well plate and binding/washing buffer (25 mM HEPES/KOH, pH 7.0, 50 mM KCl, 0.2 mM EDTA and 0.5 mM DTT) containing 0.15 µg µl^-1 shared herring sperm DNA, 0.3 mg ml^-1 bovine, serum albumin, 10% glycerol and 0.025% Nonidet P-40. 40,000 fluorescent units h^-1 of the CELD activity of TaMYB13-CELD protein and 2 pmol of biotinylated probes were used per assay. The cellulase activity of TaMYB13-CELD proteins bound to immobilised biotinylated probes was assayed by incubation in 100 μl of the CELD substrate solution [1 mM methylumbelliferyl β-D-cellobioside (MUC) in 50 mM Na-citrate buffer, pH 6.0] at 40° C. for 3 h. A biotin-labelled double-stranded oligonucleotide without a TaMYB13 binding site was used as a control of background activity.

For data set [4] the target is unchanged. Put plainly: no or negligible activity. The conditions noted are these: tags: C-terminal 6xHis-tagged CELD cellulase reporter fusion; label: biotin.
The target is the same in data set [5]. Put plainly: CELD reporter assay; positive control. The conditions noted are these: tags: C-terminal 6xHis-tagged CELD cellulase reporter fusion; label: biotin. The procedure:
as §4
(In a reporter assay the amount or activity of a reporter protein is the signal.)

Data set [6] shares this target. Put plainly: higher affinity than Ta1-SST S1; assayed oligonucleotide may be longer. The conditions noted are these: tags: C-terminal 6xHis-tagged CELD cellulase reporter fusion. The procedure: as §4
Data set [7] shares this target. Put plainly: background control. The settings on record: tags: C-terminal 6xHis-tagged CELD cellulase reporter fusion; label: biotin. The procedure: as §4
Data set [8] shares this target. Put plainly: assayed oligonucleotide may be longer. The settings on record: tags: C-terminal 6xHis-tagged CELD cellulase reporter fusion.
Data set [9] shares this target. Put plainly: no or negligible activity, relative to SynO2m14. The settings on record: tags: C-terminal 6xHis-tagged CELD cellulase reporter fusion; label: biotin.
For data set [10] the target is unchanged. Briefly: relative to SynO2m14. The settings on record: tags: C-terminal 6xHis-tagged CELD cellulase reporter fusion; label: biotin.

B1: SynO2m14 (dsDNA)
DNA 1: TCGAGGGAATAAAGTTAGGTAAGATGT
DNA 2: ACATCTTACCTAACTTTATTCCCTCGA
B1: the binding result in data set [1] is “binds”.

B2: AC-I (rev-comp) (dsDNA)
DNA 1: TCGAGGGAATAAGGTAGGTGGATGATGT
DNA 2: ACATCATCCACCTACCTTATTCCCTCGA
On to B2, for which the binding result in data set [2] is listed as “no binding”.

B3: Ta6-SFT1 S1 site (dsDNA)
DNA 1: TGTTAGGTTCGGTT
DNA 2: AACCGAACCTAACA
Take B3: the binding result in [3] is recorded as “binds”.

B4: MRE (rev-comp) (dsDNA)
DNA 1: TCGAGGGAATAATTTTTGGTTTGATGT
DNA 2: ACATCAAACCAAAAATTATTCCCTCGA
Consider B4, for which the binding result in data set [4] was “no binding”.

B5: SynO2 (dsDNA)
DNA 1: TCGACCGAATAAAGTTTGGTATGATGT
DNA 2: ACATCATACCAAACTTTATTCGGTCGA
As for B5, the binding result in data set [5] is given as “binds”.

B6: Ta1-SST S2 site (dsDNA)
DNA 1: ATGTTCGGTAA
DNA 2: TTACCGAACAT
Regarding B6, the binding result in [6] is on record as “binds”.

B7: control without TaMYB13 site (dsDNA)
DNA 1: GAGAATTTGCCGTTTATCTAGAAATTACCT
DNA 2: AGGTAATTTCTAGATAAACGGCAAATTCTC
Regarding B7, in data set [7], the binding result was “no binding”.

B8: Hv6-SFT S1 site (dsDNA)
DNA 1: TATGTTAGGTAC
DNA 2: GTACCTAACATA
As for B8, the binding result in data set [8] was “binds”.

B9: MYB.Ph3-I (dsDNA)
DNA 1: TCGAGGGAATAAAAACGGTTATGATGT
DNA 2: ACATCATAACCGTTTTTATTCCCTCGA
Turning to B9, the binding result in data set [9] was “no binding”.

B10: AC-III (dsDNA)
DNA 1: TCGAGGGAATAAAGTTAGGTTATGATGT
DNA 2: ACATCATAACCTAACTTTATTCCCTCGA
As for B10, the binding result in data set [10] is given as “binds”.
